Data taken from publication PMC8191317, “Structural and functional analysis of lignostilbene dioxygenases from Sphingobium sp. SYK-6” (The Journal of Biological Chemistry, 2021).
Numbering of substitutions follows the chain as printed. In names and notes the source's numbering stands.

T1: LSD4 (Sphingobium sp. SYK-6, UniProt Z9AM74RXJ0)
T1 construct: residues 2-489 modelled; Fe2+ enzyme, Co-LSD4 for complexes
T1 sequence (Z9AM74RXJ0 1-489): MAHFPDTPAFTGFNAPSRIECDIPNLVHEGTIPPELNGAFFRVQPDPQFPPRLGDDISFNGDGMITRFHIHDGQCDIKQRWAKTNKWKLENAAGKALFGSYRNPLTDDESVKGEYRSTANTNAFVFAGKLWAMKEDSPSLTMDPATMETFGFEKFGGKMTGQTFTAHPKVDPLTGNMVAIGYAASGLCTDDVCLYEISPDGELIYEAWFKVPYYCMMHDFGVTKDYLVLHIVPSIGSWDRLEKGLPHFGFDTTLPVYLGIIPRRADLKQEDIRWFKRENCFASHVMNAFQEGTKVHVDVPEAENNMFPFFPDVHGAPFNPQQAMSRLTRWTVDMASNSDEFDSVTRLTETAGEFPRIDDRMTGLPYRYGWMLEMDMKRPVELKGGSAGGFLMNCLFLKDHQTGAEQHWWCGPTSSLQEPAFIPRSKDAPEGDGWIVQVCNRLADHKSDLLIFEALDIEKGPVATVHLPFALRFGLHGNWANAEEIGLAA

T2: LSD5 (Sphingobium sp. SYK-6, UniProt G2IKS0)
T2 construct: gene SLG_27970; pET41b, E. coli BL21(DE3) lysate
T2 sequence (G2IKS0 1-492): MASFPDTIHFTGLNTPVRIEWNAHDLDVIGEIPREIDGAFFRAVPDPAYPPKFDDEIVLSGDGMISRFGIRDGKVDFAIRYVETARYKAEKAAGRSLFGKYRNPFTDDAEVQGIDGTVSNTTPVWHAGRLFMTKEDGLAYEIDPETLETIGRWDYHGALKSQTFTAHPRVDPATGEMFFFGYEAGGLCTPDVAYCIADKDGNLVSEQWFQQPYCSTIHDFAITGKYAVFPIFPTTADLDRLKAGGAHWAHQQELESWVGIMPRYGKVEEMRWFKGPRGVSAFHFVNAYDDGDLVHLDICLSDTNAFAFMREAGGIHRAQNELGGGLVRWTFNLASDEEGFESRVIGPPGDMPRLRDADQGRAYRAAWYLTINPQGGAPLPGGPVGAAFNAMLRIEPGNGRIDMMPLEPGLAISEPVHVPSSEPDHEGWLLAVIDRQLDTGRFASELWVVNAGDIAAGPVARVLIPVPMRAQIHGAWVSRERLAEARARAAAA

T3: LSD3 (Sphingobium sp. SYK-6, UniProt G2IPX7)
T3 construct: gene SLG_11300; pET41b, E. coli BL21(DE3) lysate
T3 sequence (G2IPX7 1-491): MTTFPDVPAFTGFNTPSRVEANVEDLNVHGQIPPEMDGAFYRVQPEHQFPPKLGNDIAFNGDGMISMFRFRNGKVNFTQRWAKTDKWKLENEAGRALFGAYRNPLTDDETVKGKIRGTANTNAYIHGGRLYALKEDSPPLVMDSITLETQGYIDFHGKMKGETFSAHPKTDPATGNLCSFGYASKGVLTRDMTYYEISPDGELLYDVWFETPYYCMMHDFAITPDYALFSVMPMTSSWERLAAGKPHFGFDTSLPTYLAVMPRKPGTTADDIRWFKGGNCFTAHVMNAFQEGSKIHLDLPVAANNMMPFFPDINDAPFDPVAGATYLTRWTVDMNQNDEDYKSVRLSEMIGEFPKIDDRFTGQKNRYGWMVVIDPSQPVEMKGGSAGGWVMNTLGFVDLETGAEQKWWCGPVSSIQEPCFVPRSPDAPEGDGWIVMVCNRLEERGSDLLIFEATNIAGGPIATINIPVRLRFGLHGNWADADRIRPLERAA

T4: LSD1 (Sphingobium sp. SYK-6, UniProt G2IR63)
T4 construct: gene SLG_37540; pET41b, E. coli BL21(DE3) lysate, co-produced with GroEL/GroES
T4 sequence (G2IR63 1-486): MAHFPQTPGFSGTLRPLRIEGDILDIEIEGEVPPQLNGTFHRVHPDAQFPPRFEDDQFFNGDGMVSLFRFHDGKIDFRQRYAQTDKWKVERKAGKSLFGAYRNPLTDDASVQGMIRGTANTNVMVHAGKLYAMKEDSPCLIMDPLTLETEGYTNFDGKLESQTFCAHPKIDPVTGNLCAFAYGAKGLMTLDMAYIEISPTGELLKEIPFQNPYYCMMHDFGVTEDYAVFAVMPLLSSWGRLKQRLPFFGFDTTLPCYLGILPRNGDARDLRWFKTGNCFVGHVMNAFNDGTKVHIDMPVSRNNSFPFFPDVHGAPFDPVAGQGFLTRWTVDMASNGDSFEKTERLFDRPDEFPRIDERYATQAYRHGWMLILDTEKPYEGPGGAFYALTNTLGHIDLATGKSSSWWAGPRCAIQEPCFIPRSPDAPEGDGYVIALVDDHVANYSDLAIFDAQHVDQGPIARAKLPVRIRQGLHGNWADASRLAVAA

T5: LSD2 (Sphingobium sp. SYK-6, UniProt G2IQG5)
T5 construct: gene SLG_36640; pET41b, E. coli BL21(DE3) lysate, co-produced with GroEL/GroES
T5 sequence (G2IQG5 1-490): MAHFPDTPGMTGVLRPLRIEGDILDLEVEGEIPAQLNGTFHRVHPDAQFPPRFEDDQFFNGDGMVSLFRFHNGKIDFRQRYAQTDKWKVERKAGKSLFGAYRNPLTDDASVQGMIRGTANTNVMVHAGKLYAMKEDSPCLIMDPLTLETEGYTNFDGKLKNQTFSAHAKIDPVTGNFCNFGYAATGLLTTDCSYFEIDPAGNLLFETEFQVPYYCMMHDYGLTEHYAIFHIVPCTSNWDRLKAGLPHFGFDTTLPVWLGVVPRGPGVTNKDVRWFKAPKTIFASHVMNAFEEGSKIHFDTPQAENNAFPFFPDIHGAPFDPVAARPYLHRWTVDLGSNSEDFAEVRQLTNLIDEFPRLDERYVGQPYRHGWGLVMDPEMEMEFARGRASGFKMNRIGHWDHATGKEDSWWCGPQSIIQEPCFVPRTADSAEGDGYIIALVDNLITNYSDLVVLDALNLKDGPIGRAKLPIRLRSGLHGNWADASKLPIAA

T6: LSD7 (Sphingobium sp. SYK-6, UniProt G2INY0)
T6 construct: gene SLG_09440; pET41b, E. coli BL21(DE3) lysate
T6 sequence (G2INY0 1-483): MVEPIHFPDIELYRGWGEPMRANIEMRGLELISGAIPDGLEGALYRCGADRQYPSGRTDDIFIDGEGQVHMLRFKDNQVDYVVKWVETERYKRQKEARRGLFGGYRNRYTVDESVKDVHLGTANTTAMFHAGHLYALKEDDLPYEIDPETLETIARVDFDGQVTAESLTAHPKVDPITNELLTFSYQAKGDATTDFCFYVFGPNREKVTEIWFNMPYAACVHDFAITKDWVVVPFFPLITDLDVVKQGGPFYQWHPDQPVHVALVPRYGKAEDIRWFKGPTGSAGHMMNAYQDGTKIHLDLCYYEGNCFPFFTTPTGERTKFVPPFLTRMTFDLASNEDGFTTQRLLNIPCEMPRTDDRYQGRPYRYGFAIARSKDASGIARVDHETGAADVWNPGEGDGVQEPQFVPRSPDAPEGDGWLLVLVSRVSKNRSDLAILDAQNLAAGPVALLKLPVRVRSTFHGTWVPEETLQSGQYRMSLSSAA

T7: LSD6 (Sphingomonas paucimobilis, UniProt Q8RQW2)
T7 construct: gene lsdA; pET41b, E. coli BL21(DE3) lysate
T7 sequence (Q8RQW2 1-491): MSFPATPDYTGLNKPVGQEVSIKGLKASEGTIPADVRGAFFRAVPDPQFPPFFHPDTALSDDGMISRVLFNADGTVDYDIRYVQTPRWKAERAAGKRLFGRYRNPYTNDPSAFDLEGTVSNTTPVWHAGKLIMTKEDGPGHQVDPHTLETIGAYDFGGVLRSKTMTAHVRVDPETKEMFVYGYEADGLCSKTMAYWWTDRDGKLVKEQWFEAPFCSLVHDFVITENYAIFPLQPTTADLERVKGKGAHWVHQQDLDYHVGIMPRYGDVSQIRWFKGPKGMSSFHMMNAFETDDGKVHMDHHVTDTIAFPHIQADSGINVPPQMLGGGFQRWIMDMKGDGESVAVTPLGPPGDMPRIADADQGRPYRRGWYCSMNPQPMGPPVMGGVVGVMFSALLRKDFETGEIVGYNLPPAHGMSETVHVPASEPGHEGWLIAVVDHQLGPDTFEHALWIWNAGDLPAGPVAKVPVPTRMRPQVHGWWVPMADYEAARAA

B1: LSD4 (Sphingobium sp. SYK-6) (protein)
chain: T1 sequence (Z9AM74RXJ0 1-489)
notes: residues 2-489 modelled; Fe2+ enzyme, Co-LSD4 for complexes
B2: LSD4 (Sphingobium sp. SYK-6; S283A) (protein)
chain: T1 sequence (Z9AM74RXJ0 1-489) with S283A
notes: as for B1
B3: LSD4 (Sphingobium sp. SYK-6; S283F) (protein)
chain: T1 sequence (Z9AM74RXJ0 1-489) with S283F
notes: as for B1

How the values were obtained:
[1] = target: LSD4 (lignostilbene-α,β-dioxygenase 4) from Sphingobium sp. SYK-6 (Sphingobium sp. SYK-6); assay: SEC-MALS; LSD4 at 2 mg/ml in 20 mM HEPES, pH 7.5, 100 mM NaCl, Superdex 75 10/300 GL, 0.4 ml/min, room temperature
LSD4 = target: T1, LSD4; assay: O2 electrode (oxygraph) inhibition kinetics; type: biochemical; conditions: read-out: Kic
LSD5 = target: T2, LSD5; assay: oxygraph O2 consumption, E. coli lysate; type: biochemical; conditions: 100 μM substrate
LSD3 = target: T3, LSD3; assay: oxygraph O2 consumption, E. coli lysate; type: biochemical; conditions: 100 μM substrate
LSD1 = target: T4, LSD1; assay: oxygraph O2 consumption, E. coli lysate; type: biochemical; conditions: 100 μM substrate
LSD2 = target: T5, LSD2; assay: oxygraph O2 consumption, E. coli lysate; type: biochemical; conditions: 100 μM substrate
LSD7 = target: T6, LSD7; assay: oxygraph O2 consumption, E. coli lysate; type: biochemical; conditions: 100 μM substrate
LSD6 = target: T7, LSD6; assay: oxygraph O2 consumption, E. coli lysate; type: biochemical; conditions: 100 μM substrate
[2] = substrate: COc1cc(/C=C/c2cc(/C=C/C(=O)O)cc(OC)c2O)ccc1O; assay: O2 electrode (oxygraph) steady-state kinetics; type: biochemical, Sphingobium sp. SYK-6; conditions: air-saturated HEPES I = 0.1 M, pH 7.5, 25 °C
From the text: (§1) O2 electrode (oxygraph) steady-state kinetics on LSD4

[3] = substrate: COc1cc(/C=C/c2ccc(O)c(OC)c2)ccc1O; assay: O2 electrode (oxygraph) steady-state kinetics; type: biochemical, Sphingobium sp. SYK-6; conditions: air-saturated HEPES I = 0.1 M, pH 7.5, 25 °C
From the text: as §1

[4] = substrate: COc1cc(/C=C/c2ccc(O)cc2)cc(OC)c1; assay: O2 electrode (oxygraph) steady-state kinetics; type: biochemical, Sphingobium sp. SYK-6; conditions: air-saturated HEPES I = 0.1 M, pH 7.5, 25 °C
From the text: as §1

[5] = substrate: Oc1ccc(/C=C/c2cc(O)cc(O)c2)cc1; assay: O2 electrode (oxygraph) steady-state kinetics; type: biochemical, Sphingobium sp. SYK-6; conditions: air-saturated HEPES I = 0.1 M, pH 7.5, 25 °C
From the text: as §1

Molecule | Km [2] | kcat [2] | kcat/Km [2] | Km [3] | kcat [3] | kcat/Km [3] | other results
LSD4 (lignostilbene-α,β-dioxygenase 4) from Sphingobium sp. SYK-6 (enzyme) |  |  |  |  |  |  | stoichiometry N [1]: 2
COc1cc(C=O)ccc1O [vanillin] |  |  |  |  |  |  | Ki (LSD4): 30 ± 8 µM
COc1cc(/C=C/c2ccc(O)c(OC)c2)ccc1O [compound 2, lignostilbene] |  |  |  |  |  |  | relative activity (LSD5): cell lysates containing LSD1, LSD5, LSD6, or LSD7 preferentially cleaved lignostilbene over DCA-S; relative activity (LSD3): The seven soluble enzymes all cleaved lignostilbene; relative activity (LSD1): cell lysates containing LSD1, LSD5, LSD6, or LSD7 preferentially cleaved lignostilbene over DCA-S; relative activity (LSD2): The seven soluble enzymes all cleaved lignostilbene; relative activity (LSD7): cell lysates containing LSD1, LSD5, LSD6, or LSD7 preferentially cleaved lignostilbene over DCA-S; relative activity (LSD6): cell lysates containing LSD1, LSD5, LSD6, or LSD7 preferentially cleaved lignostilbene over DCA-S
COc1cc(/C=C/c2cc(/C=C/C(=O)O)cc(OC)c2O)ccc1O [compound 1, 3-(4-hydroxy-3-(4-hydroxy-3-methoxystyryl)-5-methoxyphenyl) acrylate] |  |  |  |  |  |  | relative activity (LSD3): lysates containing LSD2, LSD3, or LSD4 preferentially cleaved DCA-S over lignostilbene; relative activity (LSD2): lysates containing LSD2, LSD3, or LSD4 preferentially cleaved DCA-S over lignostilbene
B1 | 12 ± 1 µM | 11 ± 1 s⁻¹ | 900000 ± 100000 M⁻¹ s⁻¹ | 13 ± 1 µM | 18 ± 1 s⁻¹ | 1.4e+06 ± 100000 M⁻¹ s⁻¹ | Km [4]: 15 ± 2 µM; kcat [4]: 1.9 ± 0.1 s⁻¹; kcat/Km [4]: 130000 ± 10000 M⁻¹ s⁻¹; Km [5]: 22 ± 2 µM; kcat [5]: 2.1 ± 0.1 s⁻¹; kcat/Km [5]: 90000 ± 10000 M⁻¹ s⁻¹
B2 | 4.6 ± 0.5 µM | 4.1 ± 0.1 s⁻¹ | 900000 ± 100000 M⁻¹ s⁻¹ | 10 ± 1 µM | 15.3 ± 0.4 s⁻¹ | 1.5e+06 ± 100000 M⁻¹ s⁻¹ | 
B3 | 2.7 ± 0.5 µM | 0.035 ± 0.001 s⁻¹ | 13000 ± 5000 M⁻¹ s⁻¹ | 8.5 ± 0.7 µM | 0.14 ± 0.01 s⁻¹ | 16000 ± 2000 M⁻¹ s⁻¹ | 
